Assay results from patent US11034736B2, “Anti-viral cnidarins” (priority 2014, dated 2021).
Read-outs that look alike come from different tables or passages of the source.

What was measured:
HIV-1RF = assay: XTT-tetrazolium anti-HIV assay, HIV-1RF in CEM-SS cells; assay type: cell-based; settings: HIV-1RF, T-tropic laboratory strain, CEM-SS cells, XTT, 6 days
Experimental: A 2,3-bis-[2-methoxy-4-nitro-5-sulfophenyl]-2H-tetrazolium-5-carboxanilide inner salt (XTT)-tetrazolium-based assay was used to determine the anti-HIV activity of CNID-1, -2 and -3 against a T-tropic laboratory strain (HIV-1RF) in T-lymphoblastic CEM-SS cells as described previously (Gulakowski et al., J. Virol. Methods, 33: 87-100 (1991)). CEM-SS cells were maintained in RPMI 1640 media without phenol red and supplemented with 10% fetal bovine serum (BioWhittaker), 2 mM L-glutamine (BioWhittaker), and 50 μg/ml gentamicin (BioWhittaker) (complete medium). Exponentially growing cells were washed and resuspended in complete medium, and a 50 μl aliquot containing 5×10^3 cells was added to individual wells of a 96-well round-bottom microtiter plate containing serial dilutions of the respective cnidarin protein in a volume of 100 μl of medium. Stock supernatants of HIV-1RF were diluted in complete medium to yield sufficient cytopathicity (80-90% cell kill in 6 days), and a 50 μl aliquot was added to appropriate wells. Plates were incubated for 6 days at 37° C. and then stained for cellular viability using XTT.
(§1) The HIV reverse transcriptase inhibitor 3′-Azido-3′-deoxythymidine (AZT) was used as a positive control. All assays were carried out in triplicate for all viruses and cells.

[1] = tested on: HeLa CD4 LTR β-galactosidase cells; assay: Cytotoxicity in the attachment and fusion assays; assay type: cell-based
Experimental: as §1
Attachment and fusion assays were performed in HeLa-CD4-LTR-β-galactosidase cell lines as described previously (Gartner & Popovic, (1990), supra) with the following modifications. Following the interaction of HIV-1IIIIIB with HeLa CD4 LTR β-gal cells, viral attachment to HeLa CD4 LTR β-gal cells was detected as cell-associated p24 antigen following a 1 hour adsorption of virus and vigorous washing for removal of unbound virus. Fusion of HIV-1IIIIB with HeLa CD4 LTR β-gal cells was detected by chemiluminescence using a single-step lysis and detection method (Tropix Gal-screen, Bedford, Mass.) and results reported as EC50 values. Chicago Sky Blue, a polysulfonic acid dye inhibitor of HIV attachment and fusion, was used as a positive control for all assays (Clanton et al., J. Acquired Immune Defic. Syndr., 5: 771-781 (1992)).

HIV-1IIIB gp120 = HIV-1IIIB gp120 (Human immunodeficiency virus type 1 group M subtype B, UniProt P04578)
Experimental: Additional ELISA studies were performed to assess the effect of monosaccharides on CNID-1 binding to gp120 and gp41. The plates were prepared with native HIV-1IIIB gp120 (Advanced Biotechnologies, Columbia, Md.) or recombinant HIV-1HxB2 gp41 (Vybion Inc., Ithaca, N.Y.), and 100 ng/well rCNID-1-Trx was added in the presence or absence of 1 mM concentrations of the following sugars: glucose, mannose, galactose, fucose, xylose, N-acetylglucosamine (GlcNAc), N-acetylgalactosamine (GalNAc), or 100 ng/well α-acid glycoprotein (to act as a carrier for sialic acid). The plates were then washed and visualized using anti-CNID-1 polyclonal antibodies as above.
Plates to test the effect of sCD4 on CNID-1 binding to gp120 were prepared with recombinant HIV-1IIIB gp120 (Immuno Diagnostics, Woburn, Mass.) at 4° C. overnight (100 ng/well) and blocked as previously described. Serial dilutions of rCNID-1-Trx were added in the presence (test plate) or absence (control plate) of 50 ng/well sCD4 (sCD4-183, 2-domain, NIH AIDS Research & Reference Reagent Program, Germantown, Md.) and incubated for 1 hr. Plates were washed and visualized as above. Plates to test for the effect of CV-N, SVN or GRFT on CNID-1 binding to gp120 were prepared with recombinant HIV-NIIIB gp120 (Immuno Diagnostics, Woburn, Mass.) at 4° C. overnight (100 ng/well) and blocked as previously described. CV-N (100 ng/well), SVN (100 ng/well) or GRFT (130 ng/well) were added (PBST was added to control wells) and incubated for 30 minutes, followed by serial dilutions of rCNID-1-Trx and further incubated for 75 minutes. The plates were then washed and visualized using anti-CNID-1 polyclonal antibodies as previously outlined.
Plates were prepared with recombinant HIV-1IIIIB gp120 (Immuno Diagnostics, Woburn, Mass.) at 4° C. overnight (100 ng/well) and blocked as previously described. rCNID-1-Trx were added: 250 ng/well for sCD4 test plate or 500 ng/well for the GRFT test plate, and PBST (50 μl/well) to the control plate; incubation done for 2 hrs. The plates were washed as before and serial dilutions of sCD4 (sCD4-183, 2-domain, NIH AIDS Research & Reference Reagent Program, Germantown, Md.) or GRFT were added; incubated for 1 hr 10 minutes. Plates were washed as before. Primary antibodies were added at 100 μl/well: mouse anti-CD4 (ProSci Inc., Poway, Calif.) at 1:1000 dilution or rabbit anti-GRFT at 1:500 dilution; incubation done for 1 hr. The plates were washed as before and peroxidase conjugated secondary antibodies (Thermo Fisher Scientific Inc., Rockford, Ill.) were added at 100 μl/well: goat anti-mouse (sCD4 plate) or goat anti-rabbit (GRFT plate) at a 1:1000 dilution; incubation for 1 hr. The plates were then washed and visualized as previously outlined.

B1: CNID-1: HIV-inhibitory protein from soft coral Synthecium sp.; 172 amino acids, 18,122 Da, SEQ ID NO: 1 (protein)
chain: GRATLGQLKTSTIPPVTFDVPFDGANIPQDVRFTIATVNGGKGALYNAELGESAGHTIVLESDGDHPIPGTFDPKSGRGLDYLPRGLVLFSSHNYVGNMKMYTEPDSDITADFPPGTPFGVSSAITGEGSAFQLNTGIDHTGEFEIIPPNTKRNLAGVFDNEIRSVSPTGGK
EC50 (HIV-1RF): 0.0845 nM | CC50 ([1]; attachment assay, read-out: Inhibition of Attachment CC50): > 55.2 nM | CC50 ([1]; fusion assay, read-out: Inhibition of Fusion CC50): > 55.2 nM | CNID-1 binding to gp120 after CV-N pre-treatment (HIV-1IIIB gp120; CV-N 100 ng/well): did not affect CNID-1 binding | CNID-1 binding to gp120 after GRFT pretreatment (HIV-1IIIB gp120; ELISA): reduced CNID-1 binding to gp120 | CNID-1 binding to gp120 after pretreatment with sCD4 (HIV-1IIIB gp120; ELISA): did not block CNID-1 binding to gp120 | sCD4 binding to gp120 after pre-treatment with CNID-1 (HIV-1IIIB gp120; ELISA): did not block subsequent binding of sCD4 to gp120 | CNID-1 binding to gp120 after SVN pre-treatment (HIV-1IIIB gp120; SVN 100 ng/well): did not affect CNID-1 binding | GRFT binding to gp120 after pretreatment with CNID-1 (HIV-1IIIB gp120; rCNID-1 500 ng/well): did not inhibit GRFT binding to gp120 | CNID-1 binding to gp120 in presence of α-acid glycoprotein (HIV-1IIIB gp120; α-acid glycoprotein as carrier of sialic acid): not inhibited
